From patent publication US20250027901A1 come the findings set out here.

In test [1] the target is SARS-CoV-2 S1 (Sino Biological 40591-V08B1) (SARS-CoV-2) (UniProt P0DTC2).
For test [2], the target named is snoopTag-msfGFP-3C cleavage site-TwinStrep.
For test [3], the target named is lysozyme.
For test [4], the target named is SARS-CoV-2 S1 (Sino Biological 40591-V08B1) (SARS-CoV-2) (UniProt P0DTC2). The source holds these as a separate data set.
Test [5] concerns the target SARS-CoV-2 Spike-pseudotyped lentivirus (GeneCopoeia CAT. SP101-100) (SARS-CoV-2) (UniProt P0DTC2).
For test [6], the target named is Cysteine terminated spyTag peptide (…). The test is described as follows: QCMD, nanobody-SpyCatcher coupling to Cys-SpyTag peptide on gold (SpyDirect).
Test [7] deals with lysozyme. The test is described as follows: OECT sensor, SpyDirect SARS-CoV-1 nanobody gates after 7-day storage, lysozyme.
Test [8] has as its target SARS-CoV-2 S1 (Sino Biological 40591-V08B1) (SARS-CoV-2) (UniProt P0DTC2). The test is described as follows: OECT sensor, SpyDirect SARS-CoV-1 nanobody gate, 1.2 aM spike (FIG. 4C, saliva).

Where “and” joins values, the source holds several entries; their conditions need not be identical. Identical values can stand only once. Like-named read-outs stand apart in the source and are kept apart here. Some results are limits rather than exact numbers.

Chain of lysozyme (P00698 19-147): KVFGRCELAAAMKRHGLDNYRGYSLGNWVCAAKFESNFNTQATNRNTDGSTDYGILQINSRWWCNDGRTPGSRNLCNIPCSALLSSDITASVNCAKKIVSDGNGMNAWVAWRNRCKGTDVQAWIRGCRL

Turning to “VHH72-8 aa-spyCatcher-3C cleavage site-His8”, the Density per cm^2 in test [1] is 5.2e+12 per cm^2 and 2.3e+12 per cm^2; in test [6] it was 7.8e+12 per cm^2. In addition, the gained mass (ng/cm^2) in test [1] was 290 ng/cm^2 and 659 ng/cm^2; in test [2] it was less than 1 ng/cm^2; in test [6], 376 ng/cm^2. Also, the normalized response (NR) in the test with lysozyme [3] is less than 15%; in test [4], 20%; in test [5] it was 28%; with lysozyme [7], less than 12%; in test [8] it was 20%.
